The EC50 is the midpoint of the concentration-response curve. Low values mean greater potency, high ones weaker potency.

The text below walks through data of patent US20210054071A1 (NANJING LEGEND BIOTECH, published 2021).

Assay [1] has as its target T1, murine TIGIT-Fc (murine, UniProt P86176 29-148, limits assumed).
T1 construct: not shown: Fc part, detected with a secondary antibody against human Fc
T1 sequence (looked up): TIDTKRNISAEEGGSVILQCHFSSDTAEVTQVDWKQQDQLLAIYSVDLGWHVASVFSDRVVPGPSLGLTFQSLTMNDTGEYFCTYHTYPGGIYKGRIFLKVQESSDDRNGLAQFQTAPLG
The assay can be described thus: FACS competition, murine TIGIT-Fc binding to CT26 cells (murine CD155).

Assay [2] concerns the target T2, human TIGIT expressed on CHO-K1 cells (human, UniProt Q495A1 22-244).
T2 construct: also called CHO/human TIGIT cells; CHO-TIGIT cells
T2 sequence: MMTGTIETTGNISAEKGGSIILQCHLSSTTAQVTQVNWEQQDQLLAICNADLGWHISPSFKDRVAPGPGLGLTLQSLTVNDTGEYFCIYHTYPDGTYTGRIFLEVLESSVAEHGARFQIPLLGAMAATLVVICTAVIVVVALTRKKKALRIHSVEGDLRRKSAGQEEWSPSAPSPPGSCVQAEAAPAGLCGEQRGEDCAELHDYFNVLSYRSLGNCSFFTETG
In words: FACS competition, biotinylated CD155-Fc on CHO/human TIGIT cells.
Protocol: (§1) To determine cell binding EC₅₀, CHO—K1 cells expressing human, cynomolgus or murine TIGIT were harvested and incubated with gradient concentrations of anti-TIGIT sdAb-Fc fusion proteins, followed by fluorophore-labeled secondary antibodies against human Fc. […] Samples were analyzed with flow cytometry.

For assay [3], the target named is T3, murine TIGIT expressed on CHO-K1 cells (murine, UniProt P86176 29-249).
T3 construct: whole, on cells; also called CHO/mouse TIGIT; mouse TIGIT expressed on CHO cells
T3 sequence (looked up): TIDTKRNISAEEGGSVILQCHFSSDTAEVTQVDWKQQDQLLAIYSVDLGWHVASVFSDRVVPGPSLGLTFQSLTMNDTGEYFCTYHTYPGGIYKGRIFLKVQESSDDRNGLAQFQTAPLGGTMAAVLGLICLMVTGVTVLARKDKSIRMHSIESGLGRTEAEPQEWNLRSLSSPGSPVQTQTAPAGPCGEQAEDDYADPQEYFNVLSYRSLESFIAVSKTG
In words: FACS, CHO-K1 cells expressing murine TIGIT. Background: In flow cytometry, cells or beads pass a laser one at a time.
Protocol: as §1

Assay [4] addresses T2, human TIGIT expressed on CHO-K1 cells. The assay can be described thus: FACS, CHO-K1 cells expressing human TIGIT.
Protocol: as §1

B1: 10A7 mAb (antibody, human IgG1, kappa, V domains shown)
VH: EVQLVESGGGLTQPGKSLKLSCEASGFTFSSFTMHWVRQSPGKGLEWVAFIRSGSGIVFYADAVRGRFTISRDNAKNLLFLQMNDLKSEDTAMYYCARRPLGHNTFDSWGQGTLVTVSS
VL: DIVMTQSPSSLAVSPGEKVTMTCKSSQSLYYSGVKENLLAWYQQKPGQSPKLLIYYASIRFTGVPDRFTGSGSGTDYTLTITSVQAEDMGQYFCQQGINNPLTFGDGTKLEIKR
Regarding B1, the 50% effective concentration (EC50) came to 71.3 nM in assay [1], 5.27 nM in assay [2], 0.709 nM in assay [3] and 4.06 nM in assay [4].
